One data set can be described thus: GST activity toward CDNB. The format is biochemical. How it is done: (§1) The purified isoenzymes were assayed for GST activity toward herbicides using the HPLC-based assays described by Edwards R. and Cole D. J. (Pesticide Biochemistry and Physiology Vol. 54, pp96-104 (1996)) and the results are presented in Table 2. […] These isoenzymes had additional activities as glutathione peroxidases able to reduce linoleic acid hydroperoxide, a major reaction product formed during membrane peroxidation in plants (Williamson and Beverly. J. Cereal Sci. 8, 1988, 155-163).
To confirm that TaGST1 encoded a GST, it was expressed as a fusion protein with beta-galactosidase using the pBluescript plasmid in E. coli strain SOLR. TaGST1 clones were inoculated into LB liquid medium and were grown overnight at 37/C on all orbital shaker in the presence of IPTG. Bacteria were then pelleted by centrifugation, lysed by sonication and assayed for GST activity toward CDNB and analysed by SDS-PAGE and Western blotting using the anti-TaGSTI-I serum. With all six TaGST1 clones, GST activity toward CDNB could be determined in the crude extracts in the range 30-50 nkat/mg crude lysate.
(§2) To assay the recombinant fusion proteins for GST activity, the E. coli were grown in the presence of IPTG and then pelleted by centrifugation. The bacteria were then lysed by sonication and the protein precipitated using 80% ammonium sulphate. After resuspension and desalting, GSTs were purified by affinity chromatography. The WIC 3 fusion protein was purified using sulphobromophthalein-S-glutathione affinity chromatography (Mozer et al. Biochem. 22, 1983, 1068-1072) while the other WIC fusion proteins were purified using glutathione-agarose (Mannervik and Guthenberg. Methods Enzymol. 77 1981, 231-235).The purified enzymes were then assayed for GST activities toward herbicides (Table 3) and GST activities toward non-herbicide substrates and glutathione peroxidase activities toward organic hydroperoxides (Table 4).
A polyclonal antiserum was raised in a rabbit to a mixture of TaGST1-2 and TaGST1-3. When tested against crude extracts from safener-treated wheat shoots the antiserum recognised both the 25 kDa TaGST1 subunit and the 26 kDa safener-inducible TaGST2 and TaGST3 subunits. The antiserum was then used in conjunction with the antiserum raised to TaGST1-1 to immuno screen the cDNA library prepared from fenchlorazole ethyl treated wheat shoots as described in example 1. Duplicate lifts were taken from the plated out library and the first blot screened with the antiserum raised against TaGST1-2 and TaGST1-3. The second blot was screened with the antiserum raised to TaGST1-1. Five plaques were identified from the first blot which were absent from the second blot corresponding to cDNAs encoding TaGST2 or TaGST3 like polypeptides and theses clones were purified and the respective plasmids sequenced. […] The other three clones ICC. ICP and ICV had identical DNA sequences (SEQ ID No. 17) and predicted amino acid sequence (SEQ ID No. 18). GST ICJ was sub-cloned into the pET 11a vector after using PCR to introduce a Nde 1 restriction site into the translation start site, using the primer 5′ AGGTAGTTACATATGGCCGGAGGA 3′ (SEQ ID No. 19) in the amplification. following sub-cloning, the sequence of GST ICJ was re-checked to ensure no PCR induced errors had been introduced. The recombinant GST ICJ was then expressed in E. coli and purified by S-hexylglutathione affinity chromatography. The purified GST ICJ was assayed for activities as a GST (Table 3) and as a glutathione peroxidase (Table 4). […] GST ICV was finally expressed as the respective beta-galactosidase fusion protein using the Bluescript plasmid and assayed for GST activity (Table 3 ) and glutathione peroxidase activity (Table 4) in crude bacterial lysates. […]

Data set [1] can be described thus: GST activity toward herbicide metolachlor (HPLC-based assay). The format is biochemical. On the procedure:
as §1, §2
(§3) A polyclonal antiserum was raised in a rabbit to a mixture of TaGST1-2 and TaGST1-3. When tested against crude extracts from safener-treated wheat shoots the antiserum recognised both the 25 kDa TaGST1 subunit and the 26 kDa safener-inducible TaGST2 and TaGST3 subunits. The antiserum was then used in conjunction with the antiserum raised to TaGST1-1 to immuno screen the cDNA library prepared from fenchlorazole ethyl treated wheat shoots as described in example 1. Duplicate lifts were taken from the plated out library and the first blot screened with the antiserum raised against TaGST1-2 and TaGST1-3. The second blot was screened with the antiserum raised to TaGST1-1. Five plaques were identified from the first blot which were absent from the second blot corresponding to cDNAs encoding TaGST2 or TaGST3 like polypeptides and theses clones were purified and the respective plasmids sequenced. […] The other three clones ICC. ICP and ICV had identical DNA sequences (SEQ ID No. 17) and predicted amino acid sequence (SEQ ID No. 18). GST ICJ was sub-cloned into the pET 11a vector after using PCR to introduce a Nde 1 restriction site into the translation start site, using the primer 5′ AGGTAGTTACATATGGCCGGAGGA 3′ (SEQ ID No. 19) in the amplification. following sub-cloning, the sequence of GST ICJ was re-checked to ensure no PCR induced errors had been introduced. The recombinant GST ICJ was then expressed in E. coli and purified by S-hexylglutathione affinity chromatography. The purified GST ICJ was assayed for activities as a GST (Table 3) and as a glutathione peroxidase (Table 4). […] GST ICV was finally expressed as the respective beta-galactosidase fusion protein using the Bluescript plasmid and assayed for GST activity (Table 3 ) and glutathione peroxidase activity (Table 4) in crude bacterial lysates. The specific activity of GST ICV toward these substrates was then calculated by I) subtracting the low levels of GST and GPOX activity present due the endogenous activities in the E. coli and ii) determining the proportion of protein in the lysate present as recombinant GST ICV from SDS-PAGE analysis, by densitometry analysis of polypeptides stained with Coomassie blue.

In a further data set the test system is wheat shoots. Put plainly: Enhancement of GST isoenzyme expression in wheat shoots by safener fenchlorazole-ethyl. It is filed as in vivo, Triticum aestivum L. var. Hunter. How it is done:
Wheat seeds (Triticum aestivum L. var. Hunter) were imbibed in a 10 mg/l solution of the herbicide safener fenchlorazole-ethyl and then grown in an environmental growth room with further root-applied watering treatments of 5 mg/l fenchlorazole ethyl applied as required. At 10 days after imbibing, the shoot tissue was harvested and extracted prior to precipitation of the protein with ammonium sulphate (80% saturation). The total protein extract was then applied in the presence of 1 M ammonium sulphate to a phenyl-Sepharose column. The bound GSTs were then recovered, firstly by reducing the ammonium sulphate concentration to 0 M to yield the polar GST fraction, which represented 61% of the recovered activity toward 1-chloro-2,4-dinitrobenzene (CDNB). The remaining 39% of the GST activity was then recovered by adding ethylene glycol (50% v/v) to the running buffer to yield the hydrophobic GST fraction. […] The component polypeptides in the active fractions were then analysed by silver staining after resolution by sodium dodecyl sulphate polyacrylamide gel electrophoresis (SDS-PAGE). It was concluded that in fenchlorazole-ethyl-treated wheat the polar GSTs were composed of 25 kDa and 26 kDa polypeptides, while the hydrophobic fraction contained 25 kDa, 26 kDa and 24 kDa polypeptides. Further analysis by reversed-phase HPLC confirmed the subunit compositions (FIG. 2). Based on the combined analyses by Q-sepharose, HPLC and SDS-PAGE these GST polypeptides were named as described in Table 1, which also contains details of how these subunits associate together to form the active dimers found in plants and the relative abundance of these subunits in extracts from unsafened and fenchlorazole-ethyl treated ([…]) plants.

A short description of data set [2]: GST activity toward herbicide fenoxaprop-ethyl (HPLC-based assay). It is filed as biochemical. How it is done:
as §1, §2, §3

Data set [3] can be described thus: GST activity toward herbicide fluorodifen (HPLC-based assay). The format is biochemical. How it is done:
as §1, §2, §3

A short description of data set [4]: Glutathione peroxidase activity toward cumene hydroperoxide. It is filed as biochemical. On the procedure:
as §2, §3

Where [5] appears, read: isoenzymes purified from fenchlorazole-ethyl-treated wheat shoots.
Where [6] appears, read: recombinant wheat GST expressed in E. coli, affinity purified.
Where [7] appears, read: recombinant wheat GST expressed in E. coli, affinity purified, ± standard error.
Setting [8] is: beta-galactosidase fusion in crude bacterial lysates, E. coli background subtracted, corrected for proportion of recombinant protein.

B1: TaGST1-1: wheat GST isoenzyme purified from safener-treated shoots, homodimer of 25 kDa TaGST1 subunits (SEQ ID No. 2/SEQ ID No. 2) (protein)
chain 1: MAGEKGLVLLDFWVSPFGQRVRIALAEKGLPYEYAEEDLMAGKSDRLLRANPVHKKIPVLLHDGRAVNESLIILQYLEEAFPDAPALLPSDPYARAQARFWADYVDKKVYDCGSRLWKLKGEPQAQARAEMLDILKTLDGALGDKPFFGGDKFGFVDAAFAPFTAWFHSYERYGEFSLPEVAPKIAAWAKRCGERESVAKSLYSPDKVYDFIGLLKKKYGIE
chain 2: B1 chain 1
modifications: homodimer; Triticum aestivum L.
In the case of B1, in the data set “GST activity toward CDNB” (setting [5]), the “GST activity toward CDNB” value was 1,528 nkat.mg^−1. For the same molecule, in data set [1] (setting [5]), the “GST activity toward metolachlor” value was 0.11 nkat.mg^−1. In addition, in the data set on wheat shoots (fenchlorazole-ethyl treated (safened) versus unsafened wheat shoots), the “% enhancement by safener” value is 30-50%. For the same molecule, the “Increase in expression following exposure to fenchlorazole-ethyl” value in the data set with wheat shoots (leaves of wheat seedlings) was “approximately 50%”. Also, in data set [2] (setting [5]), the “GST activity toward fenoxaprop-ethyl” value is on record as 0 nkat.mg^−1. Besides, the “GST activity toward fluorodifen” value in data set [3] (setting [5]) is recorded as 0.97 nkat.mg^−1.

B2: ICR: recombinant safener-inducible type III wheat GST clone, SEQ ID No. 15, amino acid SEQ ID No. 16 (protein)
chain: MAGDGELKLLGVWTSPFVIRVRVVLNLKSLPYEYVEESLGSKSALLLGSNPVHQSVPVLLHGGRPVNESQVIVQYIDEVWAGAGPSVLPADPYERATARFWAAYVDDKVGSAWTGMLFSCKTEEERAEAVSRAVAALETLEGAFAECSKGKAFFGGDAIGFVDVVLGGYLGWFGAIDKIIGRRLIDPARTPLLARWEERFRAADAAKGVVPDDADKMLEFLPTVLAWIAGKAK
modifications: Triticum aestivum L.
As for B2, in “GST activity toward CDNB” (setting [6]), the “GST activity toward CDNB” value amounted to 8139 nkat.mg^−1. In addition, the “GST activity toward metolachlor” value in data set [1] (setting [7]) came to 0.000 ± 0.000 nkat.mg^−1. Also, in data set [2] (setting [7]), the “GST activity toward fenoxaprop-ethyl” value is on record as 0.028 ± 0.001 nkat.mg^−1. For the same molecule, the “GST activity toward fluorodifen” value in data set [3] (setting [7]) came out at 0.037 ± 0.002 nkat.mg^−1.

B3: TA 27: recombinant wheat GST from cloquintocet-mexyl-induced cDNA, SEQ ID No. 13, amino acid SEQ ID No. 14, expressed from pET 11a (protein)
chain: MEPMKVYGWAVSPWMARVLVSLEEAGADYELVPMSRNGGDHRRPEHLARNPFGEIPVLEYGGLTLYQSRAIARHILRKHKPGLLGAGSLEESAMVDVWVDVDAHHLEPVLKPIVWNCIINPFVGRDVDQGLVDESVEKLKKLLEVYEARLSSNKYLAGDFVSFADLTHFSFMRYFMATEHAVVLDAYPHVKAWWKALLARPSVKKVIAGMPPDFGFGSGRIP
modifications: Triticum aestivum L.
As to B3, the “Glutathione peroxidase activity toward cumene hydroperoxide” value in data set [4] (recombinant wheat GST, affinity purified, ± standard error (n = 3)) is recorded as 3.6 ± 0.4 absorbance change at 340 nm.mg^−1. Besides, the “GST activity toward CDNB” value in “GST activity toward CDNB” (setting [6]) worked out at 237 nkat.mg^−1. Moreover, the “GST activity toward metolachlor” value in data set [1] (setting [7]) is given as 0.063 ± 0.006 nkat.mg^−1. Besides, the “GST activity toward fenoxaprop-ethyl” value in data set [2] (setting [7]) is on record as 0.036 ± 0.004 nkat.mg^−1. For the same molecule, in data set [3] (setting [7]), the “GST activity toward fluorodifen” value is 0.034 ± 0.003 nkat.mg^−1.

B4: ICC/V/P: recombinant type III wheat GST; clones ICC, ICP and ICV with identical sequence, SEQ ID No. 17, amino acid SEQ ID No. 18 (protein)
chain: MAGGEELKLLGWWAPGVSPYVLRAQMALAVKGLSYDYLPEDRWSTSDLLIASNPVYKKVPVLIHNGRPVCESLLILEYLDDAVGLAGNGKPILPADPYSRAVARFWAAYVNDKLFPSCTGILKTTKQEERAGKMEETLSGLRHLEAVMAECSEGEAEAPFFGGDAIGFLDIALGCYLPWFEAAGRLAGLGPIIDPARTPKLAAWAERFSVAEPIKALLPGVDKLEEYITTALYPKWNIAVTGN
modifications: Triticum aestivum L.
For the molecule B4, the “Glutathione peroxidase activity toward cumene hydroperoxide” value in data set [4] (setting [8]) is listed as 0.84 ± 0.04 absorbance change at 340 nm.mg^−1. Moreover, in the data set “GST activity toward CDNB” (setting [8]), the “GST activity toward CDNB” value came out at 30 nkat.mg^−1. Further, in data set [1] (setting [8]), the “GST activity toward metolachlor” value was 0.000 ± 0.000 nkat.mg^−1. Besides, in data set [2] (setting [8]), the “GST activity toward fenoxaprop-ethyl” value came to 0.074 ± 0.008 nkat.mg^−1. Also, the “GST activity toward fluorodifen” value in data set [3] (setting [8]) came to 0.000 ± 0.000 nkat.mg^−1.

For the origin of these results see patent publication US6730828B1, “Isolated nucleic acids encoding a wheat glutathione transferase, plants transformed therewith and methods of use thereof” (Aventis Agriculture Limited, priority 1997, dated 2004).
